# Laboratory results: US20160130654A1, “SYSTEMS AND METHODS FOR DIAGNOSING AND TREATING CANCER” (THE TRANSLATIONAL GENOMICS RESEARCH INSTITUTE, priority 2013, published 2016)
# B1: TWEAK: Human recombinant tumor necrosis factor-like weak inducer of apoptosis, purchased from PeproTech (protein, UniProt O43508 94-249, looked up)
# Tumor necrosis factor ligand …: SAPKGRKTRARRAIAAHYEVHPRPGQDGAQAGVDGTVSGWEEARINSSSPLRYNRQIGEFIVTRAGLYYLYCQVHFDEGKAVYLKLDLLVDGVLALRCLEEFSATAASSLGPQLRLCQVSGLLALRPGSSLRIRTLPWAHLKAAPFLTYFGLFQVH
# Tests used:
# Type in all cases: cell-based, Human
# H1975 cells = assay: Clonogenic (colony-formation) assay
# Method: (§1) FIGS. 6A-6F illustrate that TWEAK-induced NSCLC cell survival is dependent on Mcl-1 expression. H1975 (FIG. 6A) and H2073 (FIG. 6B) cells were transfected with luciferase (siCont) or siRNAs targeting Mcl-1. Total lysates were collected 72 hours post-transfection and immunoblotted for Mcl-1 and alpha-tubulin. H1975 (FIGS. 6C and 6E) and H2073 (FIGS. 6D and 6F) cells transfected with control or siRNA constructs targeting Mcl-1 were exposed to 1 μM cisplatin for 24 hours (FIGS. 6C and 6D) or 2Gy ionizing radiation (FIGS. 6E and 6F)±pre-incubation with TWEAK (100 ng/mL). Cells were sparsely seeded into 6-well dishes and allowed to grow for 7 days prior to staining with crystal violet and colony counting. A colony was defined as containing at least 50 cells. Bars represent average of three independent wells±standard error with the non-treated (first bar) set to 1. * represents a p value <0.05 by ANOVA with Bonferroni posttest.
# H1975 (FIG. 7A) and H2073 (FIG. 7B) cells were transfected with luciferase (siCont) or siRNA targeting Bcl-xL. Total lysates were collected 72 hours post-transfection and immunoblotted for Bcl-xL and alpha-tubulin. H1975 (FIGS. 7C and 7E) and H2073 (FIGS. 7D and 7F) cells transfected with control or siRNA construct targeting Bcl-xL were exposed to 1 μM cisplatin for 24 hours (FIGS. 7C and 7D) or 2Gy ionizing radiation (FIGS. 7E and 7F)±pre-incubation with TWEAK (100 ng/mL). Cells were sparsely seeded into 6-well dishes and allowed to grow for 7 days prior to staining with crystal violet and colony counting. A colony was defined as containing at least 50 cells. Bars represent average of three independent wells±standard error with the non-treated (first bar) set to 1. * represents a p value <0.05 by ANOVA with Bonferroni posttest.
# H1975 (FIGS. 11A and 11B) cells were pre-incubated with TWEAK (100 ng/mL), (FIG. 11A) EU-5148 (10 μM), (FIG. 11B) ABT-737 (10 […]) or both drug and TWEAK prior to exposure to 2Gy ionizing radiation. Cells were sparsely seeded (125 cells) into 6-well dishes and allowed to grow for 7 days prior to staining with crystal violet and colony counting. A colony was defined as containing at least 50 cells. Bars represent average of three independent wells±standard error with the non-treated (first bar) set to 1. * represents a p value <0.05 by ANOVA with Bonferroni posttest.
# FIGS. 12A-12C illustrate that pharmacologic inhibition of Mcl-1 abrogates TWEAK-mediated cell survival. […]
# Observations of colony forming capacity following cytotoxic insult were performed as previously described (Franken N A, Rodermond H M, Stap J, Haveman J, van Bree C. Clonogenic assay of cells in vitro. Nat Protoc. 2006; 1:2315-9). […] Cells were then trypsinized, quantified, and equally dispersed in triplicate in 6-well cell culture dishes at 250 cells per well. […]
# H2073 cells = assay: Clonogenic (colony-formation) assay
# Method: as §1, with “Bars represent average of three independent wells±standard error with the non-treated (first bar) set to 1. * represents a p value <0.05 by ANOVA with Bonferroni posttest.” left out
# Observations of colony forming capacity following cytotoxic insult were performed as previously described (Franken N A, Rodermond H M, Stap J, Haveman J, van Bree C. Clonogenic assay of cells in vitro. Nat Protoc. 2006; 1:2315-9). […] Cells were then trypsinized, quantified, and equally dispersed in triplicate in 6-well cell culture dishes at 250 cells per well. […] Apparent colonies were counted. […] Statistical significance, defined as a p value <0.05, was determined by ANOVA analysis with Bonferroni posttests in Graphpad Prism.
# [1] = tested on: cleaved-PARP in H1975 cells; assay: Cleaved-PARP immunoblot (apoptosis)
# Method: FIGS. 8A and 8B illustrate that depletion of Mcl-1 abrogates TWEAK-induced protection from cell death induced by DNA damage. H1975 cells were transfected with either siRNA targeting luciferase (control) or Mcl-1. Cells were exposed to 5 uM cisplatin (FIG. 8A) or 8Gy radiation (FIG. 8B) for 0, 4 or 24 hours±pre-incubation with TWEAK (100 ng/mL). Total cell lysates were prepared and immunoblotted for cleaved-PARP (cPARP) and GAPDH as a loading control. All blots were run in duplicate.
# Mcl-1, Bcl-2, Bcl-xL, phospho-p65 (Serine residue 536), Bak, GAPDH, and cleaved-PARP antibodies were obtained from Cell Signaling Technology Inc. (Beverly, Mass.), and α-tubulin antibody was obtained from Millipore (San Diego, Calif.). Human recombinant TWEAK was purchased from PeproTech (Rock Hill, N.J.), and cisplatin was obtained from TZS Chemical via BIOTANG Inc. (Waltham, Mass.). The Mcl-1-specific inhibitor EU-5148 was kindly provided by Eutropics Pharmaceuticals (Cambridge, Mass.). ABT-737 was obtained from Selleck Chemicals (Houston, Tex.). […]
# [2] = tested on: phosphorylated p65, Mcl-1, Bcl-xL in H2073 cells; assay: Immunoblot after TWEAK treatment; conditions: H2073, TWEAK 100 ng/mL
# Method: (§2) FIGS. 4A-4C illustrate that TWEAK induces Mcl-1 in NSCLC cell lines in an NF-κB-dependent manner. Total cell lysates were prepared from serum-reduced (FIG. 4A) H1975 and (FIG. 4B) H2073 cell lines treated with TWEAK for the indicated times and immunoblotted with the indicated antibodies: Mcl-1, Bcl-xL, and phosphorylated-p65 (Ser536). Tubulin was used as a loading control. (FIG. 4C) Serum-reduced H2073 cells transfected±IkBα mutant were treated with TWEAK for 24 hours. Cells were harvested, total cell lysates were prepared and immunoblotted with the indicated antibodies to both Mcl-1 and phospho-p65. All blots were run in duplicate and tubulin was used as a loading control.
# (§3) Human lung adenocarcinoma cell lines H1975 and H2073 (ATCC, Manassas, Va.) were maintained in RPMI 1640 media (Invitrogen, Carlsbad, Calif.) plus 10% heat-inactivated fetal bovine serum (FBS) in a 37° C., 5% CO2 atmosphere. SU-DHL10 (Deng J, Carlson N, Takeyama K, Dal Cin P, Shipp M, Letai A. BH3 profiling identifies three distinct classes of apoptotic blocks to predict response to ABT-737 and conventional chemotherapeutic agents. Cancer Cell. 2007; 12:171-85), Bcl-2 1863 and Mcl-1 1780 cell lines (Ryan J A, Brunelle J K, Letai A. Heightened mitochondrial priming is the basis for apoptotic hypersensitivity of CD4+CD8+ thymocytes. Proc Natl Acad Sci USA. 2010; 107:12895-900) were maintained in RPMI 1640 plus 10% FBS with 50 μM β-mercaptoethanol added to 1863 and 1780 cells. In all assays treated with TWEAK, cells were cultured in reduced serum (0.5% FBS) for 16 hours prior to stimulation with TWEAK at 100 ng/mL in RPMI+0.1% bovine serum albumin (BSA) for the indicated times.
# (§4) Mcl-1, Bcl-2, Bcl-xL, phospho-p65 (Serine residue 536), Bak, GAPDH, and cleaved-PARP antibodies were obtained from Cell Signaling Technology Inc. (Beverly, Mass.), and α-tubulin antibody was obtained from Millipore (San Diego, Calif.). Human recombinant TWEAK was purchased from PeproTech (Rock Hill, N.J.), and cisplatin was obtained from TZS Chemical via BIOTANG Inc. (Waltham, Mass.). The Mcl-1-specific inhibitor EU-5148 was kindly provided by Eutropics Pharmaceuticals (Cambridge, Mass.). ABT-737 was obtained from Selleck Chemicals (Houston, Tex.). Immunoblot analysis was performed as previously described (Whitsett T G, Cheng E, Inge L, Asrani K, Jameson N M, Hostetter G, et al. Elevated expression of Fn14 in non-small cell lung cancer correlates with activated EGFR and promotes tumor cell migration and invasion. Am J Pathol. 2012; 181:111-20; Tran N L, McDonough W S, Savitch B A, Sawyer T F, Winkles J A, Berens M E. The tumor necrosis factor-like weak inducer of apoptosis (TWEAK)-fibroblast growth factor-inducible 14 (Fn14) signaling system regulates glioma cell survival via NFkB pathway activation and BCL-XL/BCL-W expression. J Biol Chem. 2005; 280:3483-92).
# [3] = tested on: phosphorylated p65, Mcl-1, Bcl-xL, Bcl-2 in H1975 cells; assay: Immunoblot after TWEAK treatment
# Method: as §2, §3, §4
# [4] = tested on: Mcl-1 and Bcl-xL mRNA in H1975 cells; assay: qPCR of Mcl-1 and Bcl-xL mRNA after TWEAK; conditions: H1975, TWEAK 100 ng/mL, maximal at about 6 hours
# Method: (§5) FIGS. 5A and 5B illustrate that TWEAK exposure enhances Mcl-1 and Bcl-xL mRNA expression. Total RNA was collected from (FIG. 5A) H1975 and (FIG. 5B) H2073 cells treated with 100 ng/mL TWEAK for the indicated time points. mRNA expression of Mcl-1 and Bcl-xL were determined by qPCR with histone H3.3 mRNA levels used as endogenous control. Bars represent the average±standard error of triplicate qPCR reactions. * represents a p value <0.05 compared to no treatment (of the respective gene) by Student's t test. All assays were run in duplicate.
# (§6) Human lung adenocarcinoma cell lines H1975 and H2073 (ATCC, Manassas, Va.) were maintained in RPMI 1640 media (Invitrogen, Carlsbad, Calif.) plus 10% heat-inactivated fetal bovine serum (FBS) in a 37° C., 5% CO2 atmosphere. […]
# (§7) mRNA expression was determined by qPCR as previously described (Fortin Ensign S P, Mathews I T, Eschbacher J M, Loftus J C, Symons M H, Tran N L. The Src homology 3 domain-containing guanine nucleotide exchange factor is overexpressed in high-grade gliomas and promotes tumor necrosis factor-like weak inducer of apoptosis-fibroblast growth factor-inducible 14-induced cell migration and invasion via tumor necrosis factor receptor-associated factor 2. J Biol Chem. 2013; 288:21887-97). […]
# [5] = tested on: Mcl-1 and Bcl-xL mRNA in H2073 cells; assay: qPCR of Mcl-1 and Bcl-xL mRNA after TWEAK; conditions: H2073, TWEAK 100 ng/mL, maximal at about 6 hours
# Method: as §5, §6, §7
molecule,measurement,setting,value
CN(C)CC[C@H](CSc1ccccc1)Nc1ccc(S(=O)(=O)NC(=O)c2ccc(N3CCN(Cc4ccccc4-c4ccc(Cl)cc4)CC3)cc2)cc1[N+](=O)[O-] [ABT-737],effect on TWEAK-induced cell survival,"H1975 cells; H1975, drug 10 μM plus TWEAK 100 ng/mL, 2Gy ionizing radiation",lesser effect on TWEAK-induced cell survival
same,"sensitivity to radiation (cell survival, colony count)","H1975 cells; H1975, drug 10 μM pre-incubation, 2Gy ionizing radiation",did sensitize H1975 cells to radiation
"N.N.[Cl][Pt][Cl] [cisplatin, reference compound]",cell survival (colony formation),"H2073 cells; H2073, 1 μM cisplatin",significantly reduced NSCLC cell survival
same,protein expression of cleaved-PARP,"[1]; H1975, 5 uM cisplatin, 0, 4 or 24 hours",induces protein expression of cleaved-PARP over time
same,cell survival (colony formation),"H1975 cells; H1975, 1 μM cisplatin",significantly reduced NSCLC cell survival
B1,cell survival after cisplatin or radiation with TWEAK pre-treatment,"H2073 cells; H2073, TWEAK 100 ng/mL, 1 μM cisplatin or 2Gy",significantly attenuated the effects of either cisplatin or radiation
same,phosphorylated p65 (P-p65),[2],clear induction
same,protein expression of Mcl-1 and Bcl-xL over time,[2],incremental increases
same,phosphorylated p65 (P-p65),"[3]; H1975, TWEAK 100 ng/mL",clear induction
same,protein expression of Mcl-1 and Bcl-xL over time,"[3]; H1975, TWEAK 100 ng/mL",incremental increases
same,protein expression of Bcl-2,"[3]; H1975, TWEAK exposure",up-regulated
same,induction of cleaved-PARP with TWEAK pretreatment,"[1]; H1975, TWEAK 100 ng/mL, 5 uM cisplatin or 8Gy radiation, 4 or 24 hours",completely abrogates the induction of cleaved-PARP
same,maximal increase of Mcl-1 and Bcl-xL mRNA levels,[4],10 fold
same,maximal increase of Mcl-1 and Bcl-xL mRNA levels,[5],50 fold
same,cell survival after cisplatin or radiation with TWEAK pre-treatment,"H1975 cells; H1975, TWEAK 100 ng/mL, 1 μM cisplatin or 2Gy",significantly attenuated the effects of either cisplatin or radiation
